The record followed here is US20260000597A1 (priority 2018, published 2026).

The target in the experiment is AchR (Homo sapiens, UniProt P02708). Briefly: ELISA of screened peptide phages on AchR versus streptavidin (OD450). It counts as binding. The settings on record: absorbance at 450 nm. As to the method: The output phages for the 4th and 5th rounds of biopanning in Example 13-1 were inoculated to E. coli, and plated on the agar plates so as to form 100-200 plaques per plate. The plaques were inoculated on 1 ml of an SB liquid medium containing 50 μg/ml of ampicillin by using a sterile tip, and cultured with shaking at 37° C. for 5 hours, followed by the addition of 30 μl of helper phages, and then cultured at 37° C. and 200 rpm for one day. The culture was centrifuged at 12,000 rpm for 2 minutes to collect supernatant, and 2% BSA was added to the supernatant, and used for phage screening.
In a 96-well ELISA plate, 5 μg/ml AchR or streptavidin was added at 50 μl per well, and left at 4° C. overnight. The next day, the solution in each well was discarded, followed by the addition of 2% BSA, and then blocked at room temperature for 2 hours. After the solution was all discarded, the wells were washed three times with Tris (20 mM, pH7). In addition, 100 μl of each of the phage solutions obtained from the above-prepared plaques was dispensed into wells and left at 30° C. for 1 hour. After the solution in the wells was all discarded, the wells were washed three times with Tris (20 mM, pH 7), and then the HRP-conjugated anti-M13 antibody diluted 1:2,000 was added at 100 μl per well, followed by culture at 30° C. for 1 hour. After the wells were washed three times with Tris (20 mM, pH7), 100 μl of tetramethylbenzidine was added to each well to induce a color development reaction, and then the reaction was stopped by the addition of 100 μl of 1M H2SO4, and the absorbance at 450 nm (OD450) was measured. The measured absorbance was converted into a ratio of AchR absorbance to streptavidin absorbance (AchR signal/streptavidin signal), and the results are shown in FIGS. 14 to 16.

[1] abbreviates: phage ELISA, 5 μg/ml AchR, 4th and 5th round biopanning phages.
Setting [2] is: ELISA of selected 14-mer (L3) peptide phages on AchR, Spep-2 positive control.
Setting [3] is: ELISA of selected 11-mer (L2) peptide phages on AchR, Spep-2 positive control.

Chain of AchR (P02708 21-457): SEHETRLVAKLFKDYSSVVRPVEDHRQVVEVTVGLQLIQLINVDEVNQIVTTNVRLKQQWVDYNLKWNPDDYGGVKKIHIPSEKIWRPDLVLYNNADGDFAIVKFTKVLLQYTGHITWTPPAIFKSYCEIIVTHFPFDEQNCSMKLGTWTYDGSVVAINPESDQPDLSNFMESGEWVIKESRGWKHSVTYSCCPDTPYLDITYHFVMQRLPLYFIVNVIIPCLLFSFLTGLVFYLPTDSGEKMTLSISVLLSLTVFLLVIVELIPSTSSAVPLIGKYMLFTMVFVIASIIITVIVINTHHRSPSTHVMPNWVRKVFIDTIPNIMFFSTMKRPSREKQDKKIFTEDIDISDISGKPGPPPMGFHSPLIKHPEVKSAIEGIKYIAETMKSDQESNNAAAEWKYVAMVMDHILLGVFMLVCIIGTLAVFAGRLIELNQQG

For the substance RWKRSEQR [Peptide L1-32], under setting [1], the OD was 0.607. Under setting [2], “L3-198 (LPWRERRNGGRSSE; AchR binding peptide) [Peptide L3-198]” came in with an OD of 0.78. On to “L2-44 (NMGRHKRPFLK; AchR binding peptide) [Peptide L2-44]”, for which the OD under setting [3] is recorded as 0.579. The substance “L3-71 (PLIKVKRGVGKLWN; AchR binding peptide) [Peptide L3-71]” had an OD under setting [2] of 0.78. Under setting [3], “L2-36 (FIPKMRKCSPR; AchR binding peptide) [Peptide L2-36]” came in with an OD of 0.76. On the same count and under the same terms, the figure for “L2-121 (HETKPKKDGLR; AchR binding peptide) [Peptide L2-121]” is 0.492. Under setting [1], RIKRNNCK [Peptide L1-130] came in with an OD of 0.368. With “L3-83 (SYLKCKRSDYKEVP; AchR binding peptide) [Peptide L3-83]”, the OD under setting [2] worked out at 0.768. RLKKHCGK [Peptide L1-187] returned an OD under setting [1] of 0.668. Under setting [3], “L2-18 (LQSRSKKYSVK; AchR binding peptide) [Peptide L2-18]” registered an OD of 0.753.

KMRKFYSK [Peptide L1-189]: under setting [1], the OD was 0.616.

Substance RAKKCYHK [Peptide L1-50] registered an OD under setting [1] of 0.583. Still for that read-out and setting: then RHKRWEVR [Peptide L1-195], with 0.642. In the case of KVRKSLWK [Peptide L1-52], the OD under setting [1] was determined as 0.56. The substance “L2-26 (APWRLKRAPQR; AchR binding peptide) [Peptide L2-26]” gave an OD under setting [3] of 0.809. The same measure, in the same setting: then “L2-160 (ADIRMKKWYPK; AchR binding peptide) [Peptide L2-160]”, with 0.721.

For KFKRTEGR [Peptide L1-19], the OD under setting [1] came to 0.575.

“L3-49 (VAFKTRRRVQRQSG; AchR binding peptide) [Peptide L3-49]”: the OD under setting [2] is given as 0.629. Under setting [3], “L2-68 (GPDKSRRNLHR; AchR binding peptide) [Peptide L2-68]” came in with an OD of 0.721. Consider “L3-39 (DDVKQRKKHPRVQT; AchR binding peptide) [Peptide L3-39]”, for which the OD under setting [2] was 0.654.

On to “L2-73 (PPFKFRKPLGR; AchR binding peptide) [Peptide L2-73]”, for which, under setting [3], the OD was found to be 0.662.

On to KMRKHDVR [Peptide L1-74], for which the OD under setting [1] worked out at 0.649. With “L2-93 (FNPKMRKVCLR; AchR binding peptide) [Peptide L2-93]”, under setting [3], the OD was determined as 0.635. In the case of KHKKLNQR [Peptide L1-7], the OD under setting [1] was 0.68. In the case of “L2-102 (YTSRCKKQPRK; AchR binding peptide) [Peptide L2-102]”, under setting [3], the OD is given as 0.608. Turning to “L3-196 (IEMRYRRDCSRFVN; AchR binding peptide) [Peptide L3-196]”, the OD under setting [2] is on record as 0.746. In turn, “L2-145 (MNEKPKKNDQK; AchR binding peptide) [Peptide L2-145]” showed an OD under setting [3] of 0.468. As for “L3-154 (ENIKSRKYFVKLTW; AchR binding peptide) [Peptide L3-154]”, the OD under setting [2] stood at 0.766. Under setting [1], RHKKSPWK [Peptide L1-5] gave an OD of 0.657.

On to “L3-157 (CMLRWKRWHMRFNP; AchR binding peptide) [Peptide L3-157]”, for which the OD under setting [2] is 0.731. The substance “L2-94 (NPGKTKRWLQR; AchR binding peptide) [Peptide L2-94]” had an OD under setting [3] of 0.642.

As for “L2-169 (HDPRHKKTPTK; AchR binding peptide) [Peptide L2-169]”, under setting [3], the OD was found to be 0.733.

“L3-26 (VPMKYRRCGNRQSN; AchR binding peptide) [Peptide L3-26]” gave an OD under setting [2] of 0.802.

As for “L3-177 (FQPKSRRAETKHSY; AchR binding peptide) [Peptide L3-177]”, under setting [2], the OD came out at 0.735. Same read-out and setting: the figure for “L3-147 (ADHRAKKTLSKFWT; AchR binding peptide) [Peptide L3-147]” is 0.562. Substance “L2-56 (FICKSRKFYGK; AchR binding peptide) [Peptide L2-56]” registered an OD under setting [3] of 0.713.

The substance “L2-137 (CACKQRRATSR; AchR binding peptide) [Peptide L2-137]” registered an OD under setting [3] of 0.452. The substance KPKRDQSR [Peptide L1-113] yielded an OD under setting [1] of 0.526. Substance “L3-81 (PTWRHRRYCAKDIG; AchR binding peptide) [Peptide L3-81]” came in with an OD under setting [2] of 0.775. RLRRWCVK [Peptide L1-30] yielded an OD under setting [1] of 0.605. Under setting [2], “L3-98 (PNGKVRKRIRRRYF; AchR binding peptide) [Peptide L3-98]” had an OD of 0.685. Consider KDKKMPQR [Peptide L1-185], for which the OD under setting [1] is 0.55. As to “L3-20 (CCFKLKKAYNKGPF; AchR binding peptide) [Peptide L3-20]”, the OD under setting [2] stood at 0.755.

Consider “L2-65 (PLWKTRKIEPR; AchR binding peptide) [Peptide L2-65]”, for which the OD under setting [3] worked out at 0.731. Still for that read-out and setting: the figure for “L2-195 (CQAKTRKAEDR; AchR binding peptide) [Peptide L2-195]” is 0.65. For the substance RQKKDFLK [Peptide L1-107], the OD under setting [1] was 0.534. Regarding “L3-88 (PETRHRKMFIRDFW; AchR binding peptide) [Peptide L3-88]”, the OD under setting [2] amounted to 0.7. For KERKHEAK [Peptide L1-62], the OD under setting [1] was found to be 0.633.

As to “L3-84 (HTFKLRKLCQKLFE; AchR binding peptide) [Peptide L3-84]”, under setting [2], the OD is 0.739. As for “L2-126 (AMMKYKKEFPK; AchR binding peptide) [Peptide L2-126]”, under setting [3], the OD was found to be 0.605. Same read-out and setting: the figure for “L2-135 (FPGKNRKYCSR; AchR binding peptide) [Peptide L2-135]” is 0.557. On to “L3-175 (TCHKTKRSIMRATS; AchR binding peptide) [Peptide L3-175]”, for which the OD under setting [2] came to 0.768. With RVRRDGHR [Peptide L1-49], under setting [1], the OD was 0.504. On to “L2-89 (PPFKFRKPLGR; AchR binding peptide) [Peptide L2-89]”, for which, under setting [3], the OD was 0.749.

In the case of RHKRQQDK [Peptide L1-186], the OD under setting [1] was determined as 0.474. In the case of RAKKIMFR [Peptide L1-177], the OD under setting [1] stood at 0.484. Turning to “L3-9 (NCNRFRRTIVRHCH; AchR binding peptide) [Peptide L3-9]”, the OD under setting [2] is listed as 0.725. For “L2-136 (YTSKNKRGCPR; AchR binding peptide) [Peptide L2-136]”, under setting [3], the OD was found to be 0.454. In turn, KFRKGPYR [Peptide L1-135] had an OD under setting [1] of 0.479. Take “L3-62 (YPERPRKLQDKSYS; AchR binding peptide) [Peptide L3-62]”: the OD under setting [2] is 0.766. Under setting [3], “L2-172 (CTWRGRRPHDK; AchR binding peptide) [Peptide L2-172]” yielded an OD of 0.685.

“L2-59 (FGVKYRRVICR; AchR binding peptide) [Peptide L2-59]” yielded an OD under setting [3] of 0.69. In the case of RTRKCVLK [Peptide L1-89], the OD under setting [1] is reported as 0.551. As for “L3-152 (VVIKCRKWTHKMDH; AchR binding peptide) [Peptide L3-152]”, the OD under setting [2] was determined as 0.818. Consider RPKRNWAK [Peptide L1-96], for which the OD under setting [1] was 0.494. Under setting [2], “L3-5 (NEDRGKRPHIRVLG; AchR binding peptide) [Peptide L3-5]” yielded an OD of 0.82.

Turning to “L3-40 (ASPKGRRPTFRPQH; AchR binding peptide) [Peptide L3-40]”, under setting [2], the OD was found to be 0.733. Same read-out and setting: the figure for “L3-149 (PFGKFKRLENKDEC; AchR binding peptide) [Peptide L3-149]” is 0.571.

As to “L3-172 (VTGKGRRVTFRCMN; AchR binding peptide) [Peptide L3-172]”, the OD under setting [2] amounted to 0.634. Same read-out and setting: the figure for “L3-124 (GAQRARKPVLRAVG; AchR binding peptide) [Peptide L3-124]” is 0.515. As for “L2-159 (CNQKTKKIAEK; AchR binding peptide) [Peptide L2-159]”, under setting [3], the OD was 0.696.

For the substance “L2-171 (YGTRPKKYVSK; AchR binding peptide) [Peptide L2-171]”, the OD under setting [3] was determined as 0.689. “L3-64 (HEIKQKKYFHRGHD; AchR binding peptide) [Peptide L3-64]” came in with an OD under setting [2] of 0.799.

Under setting [3], “L2-117 (DNGKIRRCLGK; AchR binding peptide) [Peptide L2-117]” gave an OD of 0.607. In turn, KKRKGSAK [Peptide L1-2] registered an OD under setting [1] of 0.68. Substance “L3-180 (QGIRPRKHLQRMPN; AchR binding peptide) [Peptide L3-180]” came in with an OD under setting [2] of 0.7. Same read-out and setting: the figure for “L3-89 (EWCKNKRWHSREYP; AchR binding peptide) [Peptide L3-89]” is 0.624.
